Source: article PMC4144766

What was measured:
[1] = target: YFP^N-TaNPSN11 (full-length TaNPSN11 fused to the N-terminal part of YFP) (Triticum aestivum (common wheat)); experiment: split reporter (BiFC, NanoBiT); BiFC in tobacco (Nicotiana benthamiana) protoplasts; YFP^N (pSY736) and YFP^C (pSY735) fusions co-expressed by the polyethylene glycol method; fluorescence monitored 24-48 hours after transformation; fluorescent and observed cells counted from ten fields of vision
[2] = target: YFP^N-TaHSP90 (Triticum aestivum); experiment: as above

YFP^N-TaNPSN11 (full-length TaNPSN11 fused to the N-terminal part of YFP) (Triticum aestivum (common wheat)), sequence (main, as listed by the source): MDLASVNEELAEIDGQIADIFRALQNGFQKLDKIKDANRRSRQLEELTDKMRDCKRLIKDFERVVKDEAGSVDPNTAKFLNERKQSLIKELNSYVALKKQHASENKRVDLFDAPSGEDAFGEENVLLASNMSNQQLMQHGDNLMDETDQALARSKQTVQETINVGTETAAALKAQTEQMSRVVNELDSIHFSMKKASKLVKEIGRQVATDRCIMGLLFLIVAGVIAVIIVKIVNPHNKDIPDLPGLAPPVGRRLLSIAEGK

Substance	ratio of fluorescent cells [1]	ratio of fluorescent cells [2]
YFP^C-TaSYP132 (full-length TaSYP132 fused to the C-terminal part of YFP) (natural protein)	0.06	–
YFP^C-TaRAR1 (natural protein)	–	0.25
